# Laboratory results: article PMC3093129 (Biochemistry, 2011)
# Biological target: the molecule itself
# Assay: AUC
protein,measurement,value
"Liprin-β2 coiled-coil mutant C145S (complete coiled-coil construct, residues S100 through E315) (domain or fragment, human) MEKTRSAASNETYQERLARLEGDKESLILQVSVLTDQVEAQGEKIRDLEVSLEGHQVKLNAAEEMLQQELLSRTSLETQKLDLMTEVSELKLKLVGMEKEQREQEEKQRKAEELLQELRHLKIKVEELENERNQYEWKLKATKAEVAQLQEQVALKDAEIERLHSQLSRTAALHSESHTERDQEIQRLKMGMETLLLANEDKDRRIEELTGLLNQYRKVKE",stoichiometry N,2
